In patent publication CN117843805A (BEILAI PHARMACEUTICAL CO LTD, dated 2024):

Experiments:
[1] = biological target: T1, Human IL-17A重组蛋白 (IL-17A-His) (human, UniProt Q16552 24-155, biotinylated (NHS-biotin) in the ELISA of paragraph 263); assay: ELISA, antibody coated at 2 ug/mL, Biotin-IL-17A-His titrated from 10 ug/mL, HRP-Streptavidin
T1 construct: also called IL-17A抗原蛋白; IL-17抗原
T1 sequence: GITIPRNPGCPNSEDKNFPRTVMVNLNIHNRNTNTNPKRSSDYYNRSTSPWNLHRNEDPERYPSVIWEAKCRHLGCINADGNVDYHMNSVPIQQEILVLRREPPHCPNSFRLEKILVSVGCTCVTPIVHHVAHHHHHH

[2] = biological target: T1, Human IL-17A重组蛋白 (IL-17A-His); assay: cell-based or functional assay
[3] = biological target: T1, Human IL-17A重组蛋白 (IL-17A-His); assay: BLI (ForteBio OCTET R2), IL-17A-His on the sensor, antibody 50-3.13 nM, 25℃

B1: Ixekizumab (antibody, human IgG4 S228P, kappa, V domains shown)
VH: QVQLVQSGAEVKKPGSSVKVSCKASGYSFTDYHIHWVRQAPGQGLEWMGVINPMYGTTDYNQRFKGRVTITADESTSTAYMELSSLRSEDTAVYYCARYDYFTGTGVYWGQGTLVTVSS
VL: DIVMTQTPLSLSVTPGQPASISCRSSRSLVHSRGNTYLHWYLQKPGQSPQLLIYKVSNRFIGVPDRFSGSGSGTDFTLKISRVEAEDVGVYYCSQSTHLPFTFGQGTKLEIKR
notes: Made in house in 293F cells from synthesised variable regions cloned into hIgG4 and hIgKc vectors; Protein A purified; also called 阳性对照抗体Ixekizumab; 阳性抗体
Question: Which EC50 [1] does the source give for B1 here?
Answer: 10.1 µg/mL

Question: What about the “IC50 of blocking Human IL-17A activation of 293F-IL-17RA-IL-17Rc-ACT1-NFκB-Luc (luciferase activity)” value [2] of the same binder?
Answer: 1.36 µg/mL

Question: What about the Kd [3] of the same binder?
Answer: 0.391 nM
